Experimental data as given in patent US8518399B2, “Methods of treating infections originating from viruses in the herpesviridae family” (Tamir Biotechnology, Inc., priority 2010, dated 2013).

Assays:
human cytomegalovirus = experiment: Antiviral activity against human cytomegalovirus, CPE-inhibition assay in primary HFF cells with real time PCR readout; assay type: cell-based; details: primary human foreskin fibroblast (HFF) cells; SI greater than 1 = active; FIGS. 1 and 2
Description: (§1) To evaluate the activity of the three tested RNases against human herpesviridae infections, the following quantitative PCR assay was used:
(§2) Solutions of the tested RNases were prepared in cell culture medium without use of dimethyl sulfoxide (“DMSO”). DMSO is unnecessary because the tested RNases are water-soluble.
Antiviral activity against herpes simplex virus-1, herpes simplex virus-2, and human cytomegalovirus was evaluated by cytopathic effect inhibition (“CPE-inhibition”) assays in primary human foreskin fibroblast (HFF) cells. Primary HFF cells were counted and 2.5×10^4 cells per well were seeded into 96-well plates in 100 it of minimal essential medium supplemented with 10% fetal bovine serum (“FBS”). The cells were then incubated for 24 hours at 37° C. in a 5% CO2 humidified incubator. Solutions of the tested RNases were added to triplicate wells to yield a final concentration of 10 μM, and diluted to yield concentrations of 2, 0.4, 0.08, 0.016, and 0.0032 μM. The plates were then incubated for 1 h and 100 μl of a virus suspension was added. […] Total DNA from the cultures was harvested and viral genome copy number was determined by real time PCR assays.
(§3) For all the assays, cytotoxicity was evaluated in the same cell line used to evaluate antiviral activity and was assessed by CellTiter-Glo assays.

roseolovirus-6A = experiment: Antiviral activity against roseolovirus-6A in HSB-2 cells, viral DNA by real time PCR; assay type: cell-based, human; details: SI greater than 1 = active, FIGS. 1 and 2
Description: as §1, §2
Antiviral activity against roseolovirus-6B was evaluated in Molt-3 cells. The tested RNases were diluted using methods used for the CPE-inhibition assay in RPMI 1640 medium (Roswell Park Memorial Institute) supplemented with 10% FBS, L-glutamine, penicillin and gentamicin. 2×10^4 Molt-3 cells were added to each well, and infected cells were added to achieve the desired multiplicity of infection and incubated at 37° C. for 4 days. The accumulation of viral DNA was determined by real time PCR assays. Antiviral activity against roseolovirus-6A was evaluated by similar procedures, but using HSB-2 cells.
as §3

B1: ranpirnase (protein, UniProt P22069 1-104, looked up)
Protein P-30: QDWLTFQKKHITNTRDVDCDNIMSTNLFHCKDKNTFIYSRPEPVKAICKGIIASKNVLTTSEFYLSDCNVTSRPCKYKLKKSTNKFCVTCENQAPVHFVGVGSC
notes: An RNase, disclosed and claimed in U.S. Pat. No. 5,559,212
- activity against human cytomegalovirus (judged by SI = CC50/EC50) (human cytomegalovirus): extraordinarily active
- activity against roseolovirus-6A (judged by SI = CC50/EC50) (roseolovirus-6A): entirely inactive
